The supplement of paper PMC9112550, “Optimization of the antimicrobial peptide Bac7 by deep mutational scanning” (BMC Biology, 2022)

Tested on: Escherichia coli TOP10
Assay: shrunken log2 fold change of peptide-encoding DNA abundance (4.5 h post-induction vs induction); higher = less antimicrobial activity (less host growth inhibition)
Conditions: time post-induction: 4.5 h; library: site-saturation at positions 5, 18, 19, 20
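Also: peptides expressed intracellularly from a pBAD plasmid library in pooled LB shake-flask culture, induced with 0.3% L-arabinose, DNA abundance read by NGS, three biological replicates, DESeq2 with apeglm shrinkage.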

Row | Sequence | shrunken log2 fold change
1 | RRIRCRPPRLPRPRPRPYIQPRP | -0.3
2 | RRIRYRPPRLPRPRPRPGRHPRP | -0.203
3 | RRIRDRPPRLPRPRPRPCIKPRP | 0.0183
4 | RRIRFRPPRLPRPRPRPSYRPRP | -0.783
5 | RRIRARPPRLPRPRPRPGHTPRP | 0.129
6 | RRIRFRPPRLPRPRPRPRWAPRP | 0.305
7 | RRIRCRPPRLPRPRPRPQIMPRP | -0.352
8 | RRIRSRPPRLPRPRPRPFDYPRP | -0.0792
9 | RRIRTRPPRLPRPRPRPLEKPRP | 0.419
10 | RRIRPRPPRLPRPRPRPGRVPRP | 0.318
11 | RRIRPRPPRLPRPRPRPIKQPRP | 0.109
12 | RRIRERPPRLPRPRPRPIISPRP | -0.209
13 | RRIRARPPRLPRPRPRPIPDPRP | 0.604
14 | RRIRSRPPRLPRPRPRPWIAPRP | -0.181
15 | RRIRRRPPRLPRPRPRPMMNPRP | 0.00643
16 | RRIRGRPPRLPRPRPRPSTFPRP | 0.112
17 | RRIRQRPPRLPRPRPRPPVHPRP | 0.164
18 | RRIRHRPPRLPRPRPRPHINPRP | -0.563
19 | RRIRARPPRLPRPRPRPQQKPRP | 0.153
20 | RRIRPRPPRLPRPRPRPFWYPRP | -0.525
21 | RRIRMRPPRLPRPRPRPLHCPRP | 0.254
22 | RRIRYRPPRLPRPRPRPLMNPRP | -0.217
23 | RRIRTRPPRLPRPRPRPWCTPRP | -0.275
24 | RRIRKRPPRLPRPRPRPFVAPRP | 0.115
25 | RRIRLRPPRLPRPRPRPRNMPRP | -0.0899

Row | Sequence | shrunken log2 fold change
26 | RRIRCRPPRLPRPRPRPMQNPRP | 0.311
27 | RRIRKRPPRLPRPRPRPKVFPRP | -0.0531
28 | RRIRARPPRLPRPRPRPYFWPRP | -0.0609
29 | RRIRVRPPRLPRPRPRPTFVPRP | 0.0147
30 | RRIRCRPPRLPRPRPRPYNVPRP | -0.434
31 | RRIRPRPPRLPRPRPRPHMQPRP | 0.151
32 | RRIRKRPPRLPRPRPRPMQYPRP | -0.0135
33 | RRIRMRPPRLPRPRPRPHRKPRP | 0.0879
34 | RRIRSRPPRLPRPRPRPYPCPRP | 0.0185
35 | RRIRTRPPRLPRPRPRPQFGPRP | -0.00643
36 | RRIRGRPPRLPRPRPRPKWKPRP | 0.202
37 | RRIRIRPPRLPRPRPRPNTLPRP | -0.818
38 | RRIRMRPPRLPRPRPRPFCEPRP | 0.148
39 | RRIRCRPPRLPRPRPRPSEKPRP | -0.188
40 | RRIRRRPPRLPRPRPRPTSMPRP | 0.263
41 | RRIRYRPPRLPRPRPRPELVPRP | 0.25
42 | RRIRCRPPRLPRPRPRPKAQPRP | 0.262
43 | RRIRLRPPRLPRPRPRPMCGPRP | 0.0137
44 | RRIRTRPPRLPRPRPRPEDMPRP | -0.00975
45 | RRIRQRPPRLPRPRPRPSEIPRP | -0.0356
46 | RRIRQRPPRLPRPRPRPIFGPRP | -0.00652
47 | RRIRTRPPRLPRPRPRPNNDPRP | -0.797
48 | RRIRNRPPRLPRPRPRPWWPPRP | -0.218
49 | RRIRTRPPRLPRPRPRPQASPRP | 2.4
50 | RRIRDRPPRLPRPRPRPKSWPRP | 0.421

Row | Sequence | shrunken log2 fold change
51 | RRIRCRPPRLPRPRPRPIFDPRP | -0.191
52 | RRIRLRPPRLPRPRPRPYRTPRP | -0.197
53 | RRIRGRPPRLPRPRPRPTINPRP | 0.477
54 | RRIRCRPPRLPRPRPRPSGDPRP | -0.195
55 | RRIRLRPPRLPRPRPRPHLEPRP | 0.0765
56 | RRIRDRPPRLPRPRPRPARRPRP | 0.59
57 | RRIRIRPPRLPRPRPRPNVPPRP | 0.0631
58 | RRIRFRPPRLPRPRPRPWWMPRP | -0.168
59 | RRIRMRPPRLPRPRPRPRLLPRP | 0.421
60 | RRIRYRPPRLPRPRPRPLMYPRP | -0.48
61 | RRIRIRPPRLPRPRPRPTHEPRP | -0.0459
62 | RRIRDRPPRLPRPRPRPCQCPRP | -0.017
63 | RRIRRRPPRLPRPRPRPPYIPRP | 0.141
64 | RRIRWRPPRLPRPRPRPQDNPRP | -0.421
65 | RRIRGRPPRLPRPRPRPGVRPRP | 0.659
66 | RRIRERPPRLPRPRPRPCSWPRP | -0.0335
67 | RRIRGRPPRLPRPRPRPVHGPRP | -0.244
68 | RRIRLRPPRLPRPRPRPYQYPRP | -0.151
69 | RRIRVRPPRLPRPRPRPREEPRP | 0.493
70 | RRIRKRPPRLPRPRPRPCIGPRP | 0.0382
71 | RRIRSRPPRLPRPRPRPLGFPRP | 0.0335
72 | RRIRMRPPRLPRPRPRPTQKPRP | 0.168
73 | RRIRCRPPRLPRPRPRPMTIPRP | -0.128
74 | RRIRFRPPRLPRPRPRPQTFPRP | -0.127
75 | RRIRDRPPRLPRPRPRPLIVPRP | 0.173

Row | Sequence | shrunken log2 fold change
76 | RRIRSRPPRLPRPRPRPHTWPRP | -0.0472
77 | RRIRWRPPRLPRPRPRPENPPRP | -0.0117
78 | RRIRLRPPRLPRPRPRPGTWPRP | 0.0714
79 | RRIRFRPPRLPRPRPRPVVKPRP | -0.461
80 | RRIRYRPPRLPRPRPRPESWPRP | -0.0403
81 | RRIRIRPPRLPRPRPRPWCIPRP | -0.0951
82 | RRIRARPPRLPRPRPRPYRQPRP | -0.0187
83 | RRIRARPPRLPRPRPRPDSFPRP | -0.0867
84 | RRIRQRPPRLPRPRPRPDLAPRP | -0.0142
85 | RRIRVRPPRLPRPRPRPHDAPRP | -0.141
86 | RRIRYRPPRLPRPRPRPVPKPRP | 0.0938
87 | RRIRPRPPRLPRPRPRPEHWPRP | 0.226
88 | RRIRSRPPRLPRPRPRPSSFPRP | -0.356
89 | RRIRARPPRLPRPRPRPQHNPRP | -0.26
90 | RRIRWRPPRLPRPRPRPVYIPRP | -0.0308
91 | RRIRERPPRLPRPRPRPTCDPRP | 0.158
92 | RRIRIRPPRLPRPRPRPSVAPRP | 0.011
93 | RRIRKRPPRLPRPRPRPNTDPRP | -0.261
94 | RRIRSRPPRLPRPRPRPNAYPRP | -0.696
95 | RRIRRRPPRLPRPRPRPTVNPRP | 0.15
96 | RRIRHRPPRLPRPRPRPLRRPRP | 0.3
97 | RRIRERPPRLPRPRPRPFCMPRP | -0.126
98 | RRIRGRPPRLPRPRPRPPQDPRP | 0.781
99 | RRIRRRPPRLPRPRPRPFECPRP | 0.036
100 | RRIRCRPPRLPRPRPRPKVMPRP | -0.184

Row | Sequence | shrunken log2 fold change
101 | RRIRWRPPRLPRPRPRPNPQPRP | -0.0303
102 | RRIRGRPPRLPRPRPRPRPMPRP | 1.51
103 | RRIRQRPPRLPRPRPRPAPYPRP | 0.204
104 | RRIRERPPRLPRPRPRPGCEPRP | -0.00695
105 | RRIRVRPPRLPRPRPRPCTGPRP | -1.78
106 | RRIRNRPPRLPRPRPRPLPGPRP | 0.143
107 | RRIRARPPRLPRPRPRPWWEPRP | 0.37
108 | RRIRARPPRLPRPRPRPPWIPRP | 0.38
109 | RRIRERPPRLPRPRPRPLQNPRP | -0.116
110 | RRIRSRPPRLPRPRPRPSIGPRP | 0.347
111 | RRIRFRPPRLPRPRPRPGCGPRP | 0.748
112 | RRIRCRPPRLPRPRPRPLNKPRP | -0.695
113 | RRIRDRPPRLPRPRPRPRIMPRP | 0.015
114 | RRIRIRPPRLPRPRPRPVNTPRP | -1.06
115 | RRIRMRPPRLPRPRPRPTTHPRP | 0.295
116 | RRIRPRPPRLPRPRPRPEEDPRP | 0.192
117 | RRIRTRPPRLPRPRPRPFDLPRP | -0.29
118 | RRIRPRPPRLPRPRPRPADYPRP | 0.0631
119 | RRIRYRPPRLPRPRPRPRLMPRP | -0.0571
120 | RRIRRRPPRLPRPRPRPATAPRP | 0.479
121 | RRIRCRPPRLPRPRPRPELYPRP | 0.221
122 | RRIRLRPPRLPRPRPRPIIWPRP | -0.000825
123 | RRIRKRPPRLPRPRPRPLMAPRP | 0.635
124 | RRIRNRPPRLPRPRPRPTFAPRP | 0.343
125 | RRIRVRPPRLPRPRPRPFFQPRP | -0.0276

Row | Sequence | shrunken log2 fold change
126 | RRIRARPPRLPRPRPRPFSDPRP | -0.169
127 | RRIRFRPPRLPRPRPRPTYRPRP | -8.67e-05
128 | RRIRARPPRLPRPRPRPFNAPRP | -0.307
129 | RRIRIRPPRLPRPRPRPSSRPRP | -0.538
130 | RRIRDRPPRLPRPRPRPQYVPRP | -0.229
131 | RRIRLRPPRLPRPRPRPKRGPRP | 0.483
132 | RRIRTRPPRLPRPRPRPRTCPRP | 1.21
133 | RRIRQRPPRLPRPRPRPKVVPRP | -0.0141
134 | RRIRPRPPRLPRPRPRPEGRPRP | 0.545
135 | RRIRARPPRLPRPRPRPFWSPRP | 0.061
136 | RRIRCRPPRLPRPRPRPVKMPRP | -0.248
137 | RRIRRRPPRLPRPRPRPMLQPRP | -0.274
138 | RRIRFRPPRLPRPRPRPAGGPRP | 0.382
139 | RRIRCRPPRLPRPRPRPKQDPRP | 0.0895
140 | RRIRGRPPRLPRPRPRPPNVPRP | 0.431
141 | RRIRDRPPRLPRPRPRPGMYPRP | -0.00172
142 | RRIRNRPPRLPRPRPRPTHTPRP | -0.191
143 | RRIRCRPPRLPRPRPRPSDNPRP | -0.66
144 | RRIRERPPRLPRPRPRPEFQPRP | -0.0353
145 | RRIRKRPPRLPRPRPRPDFSPRP | 0.0114
146 | RRIRIRPPRLPRPRPRPDPTPRP | -0.0575
147 | RRIRYRPPRLPRPRPRPDVSPRP | -0.248
148 | RRIRERPPRLPRPRPRPWDDPRP | -0.0464
149 | RRIRPRPPRLPRPRPRPAHPPRP | 0.273
150 | RRIRGRPPRLPRPRPRPCSRPRP | 0.0838
